A short description of data set [1]: Metabolic stability in kidney S9, Cynomolgus macaques. The class given is in vitro ADME. The following applies: cynomolgus macaque. How it is done:
Test Example 8: Metabolic Stability of the Compounds of the Present Invention in Kidney S9 from Mice, Rats, Cynomolgus Macaques, and Humans
To investigate the metabolic stability of the compounds of the present invention in kidney S9 from mice, rats, Cynomolgus macaques, and humans.
Materials: Kidney S9 from CD-1 mice, SD rats, Cynomolgus macaques, and humans were purchased from BioIVT or XenoTech LLC and stored in a −80° C. refrigerator.
Experimental procedure: Eight 96-well plates, designated T0, T5, T15, T30, T45, T60, Blank, and NCF60, were prepared. The first six incubation plates corresponded to reaction time points of 0, 5, 15, 30, 45, and 60 minutes, respectively. No test sample or control compound was added to the Blank plate.
The T0, T5, T15, T30, T45, and T60 plates were added with a 2 μL working solution of the test sample (10 mM of a solution of the compound to be tested in DMSO, diluted to 100 μM with 100% acetonitrile) and 100 μL of a S9 working solution (kidney S9 protein concentration of 1.0 mg/mL), and the Blank plate was only added with the S9 working solution. The above incubation plates were then placed in a 37° C. water bath for pre-incubation for about 10 minutes.
At the end of the pre-incubation, 98 μL of an auxiliary enzyme working solution was added to each sample well except the TO plate to start the reaction. […]

The nature of data set [2]: Stability in plasma, Cynomolgus macaques. As to conditions: cynomolgus macaque, 37° C. It is filed as in vitro ADME. As for the experimental part:
Test Example 9: Stability Analysis of the Compounds of the Present Invention in Plasma from Different Species
To test the stability of the compounds of the present invention in plasma from SD rats, Cynomolgus macaques, and humans.
The corresponding incubation plates, including T0, T10, T30, T60, T120, and T240 incubation plates, were added with a 2 μL working solution of the compound to be tested (100 μM). Three parallel wells were prepared for each sample. Then, 98 μL of blank plasma from SD rats, Cynomolgus macaques, and humans was added to the corresponding incubation plates to which the working solution had been added. All samples were incubated in a 37° C. water bath. […] At the end of each incubation time point, the corresponding incubation plate was removed, added with stop buffer, precipitated, and centrifuged for 20 minutes. Then, 150 μL of the supernatant was analyzed by the LC-MS/MS method. The concentration of the compound to be tested in the sample was semi-quantitatively determined by the liquid chromatography-tandem mass spectrometry (LC-MS/MS) method.

Each structure is given as a SMILES string. Where a name gives a salt, the structure may show the parent alone. Starred links: 1 amine or outer side, 2 acyl side, 3 side chain; linkers in the order of their positions; H or OH if unused. Positions of bridges follow the written chain, without caps; N, C: chain ends. Non-standard residues stand in square brackets, D forms with d. Residues, ends and D or L forms follow the SMILES beside them. Chains are numbered I, II in the order given. *: point of attachment. TATA = O=C(CC[*:1])N1CN(C(=O)CC[*:2])CN(C(=O)CC[*:3])C1; Dolaproine = CO[C@@H]([C@@H]1CCCN1)[C@@H](C)C(=O)O; Dil = CC[C@H](C)[C@H](NC)[C@@H](CC(=O)O)OC; 1Nal = N[C@@H](Cc1cccc2ccccc12)C(=O)O; X2 = O=C(CCCC(=O)[*:2])NCCC(=O)[*:1]; PABC = O=C(OCc1ccc(N[*:1])cc1)[*:2]; X1 = C[C@@H](N*)[C@@H](O)c1ccccc1; Hyp = O=C(O)[C@@H]1C[C@@H](O)CN1; hArg = N=C(N)NCCCC[C@H](N)C(=O)O; Cit = NC(=O)NCCC[C@H](N)C(=O)O; Pen = CC(C)(S)[C@H](N)C(=O)O; NMeV = CN[C@H](C(=O)O)C(C)C; Sar = CNCC(=O)O

In data set [1], `CC[C@H](C)[C@@H]([C@@H](CC(=O)N1CCC[C@H]1[C@H](OC)[C@@H](C)C(=O)N[C@H](C)[C@@H](O)c1ccccc1)OC)N(C)C(=O)[C@@H](NC(=O)[C@H](C(C)C)N(C)C(=O)OCc1ccc(NC(=O)[C@H](CCCNC(N)=O)NC(=O)[C@@H](NC(=O)CCCC(=O)NCCC(=O)N(C)CC(=O)N(C)CC(=O)N(C)CC(=O)N(C)CC(=O)N(C)CC(=O)N(C)CC(=O)N(C)CC(=O)N(C)CC(=O)N(C)CC(=O)N(C)CC(=O)N[C@H]2CCCCNC(=O)C[C@@H](C(=O)N[C@H]3CSCCC(=O)N4CN5CN(C4)C(=O)CCSC(C)(C)[C@H](NC(=O)[C@@H](CC(=O)O)NC(=O)[C@H](Cc4cccc6ccccc46)NC(=O)[C@@H]4CCCN4C3=O)C(=O)N[C@@H](CCSC)C(=O)N[C@@H](CCCCNC(=N)N)C(=O)N[C@@H](CC(=O)O)C(=O)N[C@@H](Cc3c[nH]c4ccccc34)C(=O)N[C@@H](CO)C(=O)N[C@@H]([C@@H](C)O)C(=O)N3CCC[C@H]3C(=O)N3C[C@H](O)C[C@H]3C(=O)N[C@@H](Cc3c[nH]c4ccccc34)C(=O)N[C@H](C(N)=O)CSCCC5=O)NC(=O)CN(C)C2=O)C(C)C)cc1)C(C)C` [Acetate salt of PDC_2] (I: [Sar][Sar][Sar][Sar][Sar][Sar][Sar][Sar][Sar][Sar]K[Sar]DCP[1Nal][dD][Pen]M[hArg]DWSTP[Hyp]WC-NH2 / II: V[Cit][PABC][NMeV]V[Dil][Dolaproine]-X1; lactam I:11-I:13; linker I:14-I:18-I:28 via TATA; linker I:N-II:N via X2) returned a half-life at 1 μM of more than 2.42 h and a microsomal CLint at 1 μM of less than 9.6 µL/min/mg. Moreover, the half-life at 2 μM in data set [2] was more than 9.63 h.

The values above are taken from patent publication US12539335B2, “Tricyclic polypeptide conjugated drug and use thereof” (CONJUSTAR (ZHUHAI) BIOLOGICS CO., LTD., priority 2021, dated 2026).
